Laboratory results as given in the DeepSol protein solubility set.

Experiment: soluble on expression in E. coli; label from the status in PepcDB or PDB records

Sequence	soluble on expression in E. coli
MSAASEAVSGALFQHLFRIFSLFADQNEKGTFKPAQAEFLIDELLRELRRQTTPKVHDLPENVTFNEFLNLLQVIFPDREDLLIATNRVFERYVNHVIGKGFVLFRKLSQKRGCLPFKRRTEDWQFGWLQVLPGVAEIRKQNSDIDDIIQFDEDTVIEPPVIDEDASVWSVICNSTTAFQFSHLDPIMAQLFVKGFLTYWKLNLKYFFSDMRSARDFPTREELAVFDYKRSLKSRPTKEGKSRKELETERCRLESELEEEKKNRKDEEIVRGLTTRLLKQEMEKSEQMQQVIYELRSKLDNGENEAGVDDEDIVDVEMIEDEISEDVGENEEISITLPSREEKIQQYAYHLYATQAEEHVTSDDEEIWKQNYNLIVSTHFTDTMWKSCKPIVYCSEIVSQIVNQSPFIFLINLNNDLHNRATLGLTTYLVSYRFPCSFFLIELKMTKLRVGFIGYGHLGKFLVEKLRLLPEEFEIVKIWNRSVGEPGVQGLETLTAENLKDIDLVVEVAHPKIIADYGELILEHCDLFAGSPTCFANQELLEKLTKLSLSHGKKLLIPAGALWGANDIQKMADVGSLKGLTVTMIKHPTSFKLGSPLFEINEKAKLEETNETVLYEGSVRGLCPLAPNNVNTMAGGALAASNLGFDEVKAKLISDPKMTDWHVVEVRVEGDDGFEVITRRNNPAKPGAVTGQLTYYSFLSSIKESRYKPIGVQLC	not soluble
MSGKVVRPSAALLEVFKSWQGGAIRVQRNEKLKTRLDVILDRPEKNNCLSGEMMKQFGEHTELFSDDQNAIIVVSGVGKSFCSGADLGLIKDISDQKLGVQMFEYMSSILSLLHSSPAISIAKIHGHALGGATEICSSTDIRIAHSGSKIAFFQSKMGIVPSWGGAEYMEGIMGRGRALAAMGRANVMSAEEAKDQGYVDYVYKSEDEAENFINQVASAGLKVTRAQKAMLNAVKIGKTEQKQVLEAVWNGETHRNALQKQLEAVVKK	not soluble
MPKKPLIDQLHHEDSWRLFRILAEFVEGFETLSELQVPLVSVFGSARFGEGHPAYEAGYRLGRALAEAGFGVVTGGGPGVMEAVNRGAYEAGGVSVGLNIELPHEQKPNPYQTHALSLRYFFVRKVLFVRYAVGFVFLPGGFGTLDELSEVLVLLQTEKVHRFPVFLLDRGYWEGLVRWLAFLRDQKAVGPEDLQLFRLTDEPEEVVQALKAEAPPR	soluble
MAHHHHHHMRKGKSPSSFFSLHKKYLLTGVTILSFIFMFQYKYHEVLTVYEDKTNVQQSSRLFWTRLLFGRTRSRITGRIFNIEIPHSYRLYVYNFFIKYLNINKEEIKYPIESYKSLGDFFSRYIREDTRPIGDLNEYSIVSPCDSEIVDFGELTSNYLDNVKGIKFNIKTFLGSDMIKKYNDDSTSFYYAIFYLSPKKYHHFHAPFNFKYKIRRHISGEVFPVFQGMFKIINNLFDINERVILSGEWKGGHVYYAAISAYNVGNIKIVNDEDLLTNNLRTQLSYMGGDINTKIYDHYKDLEIGDEVGEFKVGSSIIVIFENKKNFKWNVKPNQQISVGERIGGVDQPKQPKNKFIKIRS	soluble
VPLEHFNVPYEDSFFPAVRVKFQGSTKTLIFHGGYDSCLEEMLPFFSAFENLGYDIIAFEGPGQGMALKNGLKFIHNWERPVSALLDYFNLNEVTILGCSWGGYFCLRAAAFEKRIKAAIVYDIFYCGMDVIGMKNKEMRYELEKLLNNNEKDKINELMYSKMKADIDFNWKISKGMDNTMTYTPYDFLKAIQLHTMDGIEELIDQDVLLLAGEEDQYVPIEAMKLFEDRLVNANITKKIFTKETGGEQHCQVGRIDLAFDEIKKFLVR	not soluble
MSLTPATRNNDSAVAVADAFDDTGDGPPTAARFAALAACWRQPDDDLQAALAAETDTTVDAQSLRAEYTRLFVGPGPSQSPPYESVYRDGERDADLGPVYGSSTQAVARWYSEYGLQPAASESAPPDHLATELEFAAYLREHEGAETLEQFLTEHPRNWVESFARRVRDADPKPFYRTLLNVTVDTLARADTPLEGHHHHHH	not soluble
MSLATIKDVAQRAGLSISTVSRYLNHHPYISEDKKIKIQQAMDELDYVPNLVAMQLRSNKSYTIGIIVPRITNPYFAYLIDAIDKKIKGTPYHTLIMQTYNDKEEELRLLNMFKQRQIAGVIMGALENDIEVLETYTKYGPIILSADQSMQSDKVKIIHTTQRQTTYDAIQYLINKGYRNIAYCTDNNYYDHCFNKPRNVGFRVAMKDNGLDIRNEWIFNNVHTIEDGEQIGKILLRQEQLPDAIFTGSDEVALGLMHFMTAHQIDIPNQIAIMGYDNQPISSLLKIPLSTVNQPVNDIGMQLINYLLALLEETEFEINDNVLKLNIVERQSTEGHHHHHH	soluble
GHMTDEDSEANALADPDNPPLSAEQLASAPRMPRIKIIRRALKLTQEEFSARYHIPLGTLRDWEQGRSEPDQPARAYLKIIAVDPEGTAAALRKGATGS	soluble
